Results from article doi:10.1101/2023.07.17.549218.
Each block holds one substance with its values, some of them ahead of it.

How the values were obtained:
[1] = target: HK97 small terminase Lys4Ala mutant (bacteriophage HK97); assay: SEC; size exclusion chromatography of the purified mutant proteins (Supplementary Fig. 12); nonamer
[2] = target: HK97 small terminase Arg5Ala mutant (bacteriophage HK97); assay: as above
[3] = target: HK97 small terminase Lys4Ala/Arg5Ala/Arg7Ala triple mutant (bacteriophage HK97); assay: as above
[4] = target: T1, HK97 small terminase WT (bacteriophage HK97) (UniProt Q9MBW4); assay: MST; details: 25 mM Tris-HCl pH 7.5, 200 mM NaCl, 10 mM MgCl2; EMSA: 3 h at RT, gel at 4 C, 1 uM protein with 2 uM unlabelled or 30 nM labelled DNA; MST: +0.005-0.01% Tween …
T1 sequence: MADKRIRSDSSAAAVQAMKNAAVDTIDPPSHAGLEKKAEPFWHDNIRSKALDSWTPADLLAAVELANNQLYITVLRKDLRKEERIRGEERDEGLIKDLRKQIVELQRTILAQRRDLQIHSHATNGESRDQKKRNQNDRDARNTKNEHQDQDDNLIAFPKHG

[5] = target: HK97 small terminase Arg107Ala mutant (bacteriophage HK97); assay: SEC; size exclusion chromatography of the purified mutant proteins (Supplementary Fig. 12); nonamer
[6] = target: HK97 small terminase Lys100Ala mutant (bacteriophage HK97); assay: as above
[7] = target: HK97 small terminase Arg114Ala mutant (bacteriophage HK97); assay: as above
[8] = test system: HK97 small terminase K4A/R5A/R7A (bacteriophage HK97); assay: MST; details: 25 mM Tris-HCl pH 7.5, 200 mM NaCl, 10 mM MgCl2; EMSA: 3 h at RT, gel at 4 C, 1 uM protein with 2 uM unlabelled or 30 nM labelled DNA; MST: +0.005-0.01% Tween …
[9] = test system: HK97 small terminase R107A (bacteriophage HK97); assay: MST; details: 25 mM Tris-HCl pH 7.5, 200 mM NaCl, 10 mM MgCl2; EMSA: 3 h at RT, gel at 4 C, 1 uM protein with 2 uM unlabelled or 30 nM labelled DNA; MST: +0.005-0.01% Tween …
[10] = target: HK97 small terminase Arg7Ala mutant (bacteriophage HK97); assay: SEC; size exclusion chromatography of the purified mutant proteins (Supplementary Fig. 12); nonamer
[11] = target: HK97 small terminase (bacteriophage HK97); assay: cryo-EM structure; small terminase with 31 bp dsDNA (cos 7-37), 1:2 protein to DNA, 25 mM Tris-HCl pH 7.5, 200 mM NaCl, 10 mM MgCl2; complex purified on S200 10/30; nonamer

Substance: HK97 small terminase Lys4Ala mutant (natural protein)
stoichiometry N [1]: 9

Substance: cos71 (cos 31-100), lacks binding site
Kd [4]: 2.04 µM

Substance: HK97 small terminase Lys100Ala mutant (natural protein)
stoichiometry N [6]: 9

Substance: HK97 small terminase Arg114Ala mutant (natural protein)
stoichiometry N [7]: 9

Substance: cos100 (cos -20 to 80)
Kd [8]: 0.85 µM | Kd [9]: 0.79 µM | Kd [4]: 0.5 µM

Substance: HK97 small terminase (natural protein)
stoichiometry N [11]: 9

Now from value to substance:

stoichiometry N [2]: 9
Substance: HK97 small terminase Arg5Ala mutant (natural protein)

stoichiometry N [3]: 9
Substance: HK97 small terminase Lys4Ala/Arg5Ala/Arg7Ala triple mutant (natural protein)

stoichiometry N [5]: 9
Substance: HK97 small terminase Arg107Ala mutant (natural protein)

stoichiometry N [10]: 9
Substance: HK97 small terminase Arg7Ala mutant (natural protein)
